Where two headings read alike, the source gives them in different places.
How the values were obtained:
Jurkat cells [1] = type: cell-based, human; details: 16 hr
CdtB = assay: Effect of phosphatase inhibitors on CdtB-mediated hydrolysis of PI-3,4,5-P3; type: biochemical, A. actinomycetemcomitans; details: for reduction of CdtB phosphatase activity: 0.5 μM CdtB, 30 min
Experimental: CdtB (0.5 μM; triangles) and PTEN (0.1 μM; circles) were incubated with liposomes containing PI-3,4,5-P3 in the presence of varying concentrations of tungstate or orthovanadate for 30 min. Phosphate release was measured using the malachite green binding assay. Results are plotted as phosphate release (nmol/30 min; mean±S.D.) versus inhibitor concentration (mM);
(§1) Phosphatase activity was assessed by monitoring the dephosphorylation of PI-3,4,5-P3 as described by Maehama et al [Maehama, T., G. Taylor, J. Slama, and J. Dixon. 2000. A sensitive assay for phosphoinositide phosphatases. Analytical Biochemistry 279:248-2501. Briefly, the reaction mixture (20 μl) consisted of 100 mM Tris-HCl (pH 8.0), 10 mM dithiothreitol, 0.5 mM diC16-phosphatidylserine (Avanti), 25 μM PI-3,4,5-P3 (diC16; Echelon) and the indicated amount of CdtB, CdtABC or PTEN (kindly provided by Gregory Taylor). Appropriate amounts of lipid solutions were deposited in 1.5 ml tubes, organic solvent removed, the buffer added and a lipid suspension formed by sonication. For experiments to determine substrate specificity, PI-3,4,5-P3 was replaced by the indicated phosphatidylinositol phosphate (Echelon). Phosphatase assays were carried out at 37° C. for 30 min; the reactions were terminated by the addition of 15 μl of 100 mM N-ethylmaleimide. Inorganic phosphate levels were then measured using a malachite green assay. Malachite green solution (Biomol Green; Biomol) was added to 100 μl of the enzyme reaction mixture and color was developed for 20 min at RT. Absorbance at 650 nm was measured and phosphate release quantified by comparison to inorganic phosphate standards.

[2] = Substrate specificity with phosphoinositides in liposomes; type: biochemical; details: 0.5 μM CdtB, 0.1 μM PTEN; 30 min; liposomes with phosphatidylserine carrier; FIG. 3
Experimental: as §1, with “Malachite green solution (Biomol Green; Biomol) was added to 100 μl of the enzyme reaction mixture and color was developed for 20 min at RT.” left out
CdtB substrate specificity was assessed using several different phosphoinositides (PI). […] In order to determine whether CdtB is a 3- or 5-phosphatase, product formation was assessed using thin layer chromatography. […]

[3] = type: biochemical
[4] = TLC analysis of product formation after PI-3,4,5-P3 hydrolysis; type: biochemical; details: 0.5 μM CdtB or 0.1 μM PTEN, FIG. 3 inset
Description: Analysis of CdtB-Mediated Product Formation
Inositol lipids were separated by thin layer chromatography. Silica gel G plates were dipped in boric acid (5% in methanol) and then dried. They were then spotted with the lipid samples dissolved in chloroform/methanol/water (1/2/0.1) together with solutions containing the standard inositol lipids phosphatidyl 4,5 bisphosphate, phosphatidyl 3,4 bisphosphate, phosphatidyl 3,5bis phosphate, phosphatidyl 3,4,5 trisphosphate, and phosphatidyl inositol. The plates were eluted with solutions containing propyl acetate/isopropanol/ethanol/ammonia/water (15/45/16/9/35), dried, and sprayed with solution containing CuSO4/H3PO4 (8%/10%), and air dried again. Plates were then heated to 70° C. then to 155° C. to visualize the lipids.

supercoiled pUC19 DNA = type: biochemical
[5] = Dephosphorylation of inositol phosphates; type: biochemical
Jurkat cells [6] = type: cell-based, human
[7] = Protein phosphatase activity with synthetic substrate; type: biochemical; details: synthetic substrate pNPP
[8] = 30 min, read-out: ED0.5 [concentration required to catalyze 0.5 nmol phosphate release]

O=c1cc(N2CCOCC2)oc2c(-c3ccccc3)cccc12 [LY290004]
Cdt-induced accumulation of G2 cells after pre-treatment (Jurkat cells [1]): 22.0%

[O]=[Mo](=[O])([O-])[O-] [molybdate]
inhibition of CdtB (in words) (CdtB): failed to inhibit

[O]=[V]([O-])([O-])[O-] [orthovanadate]
reduction of CdtB phosphatase activity (CdtB; 1 mM inhibitor): 10%
reduction of CdtB phosphatase activity (CdtB; 10 mM inhibitor): 85%

[O]=[W](=[O])([O-])[O-] [tungstate]
reduction of CdtB phosphatase activity (CdtB; 1 mM inhibitor): 15%
reduction of CdtB phosphatase activity (CdtB; 10 mM inhibitor): 70%

COC[C@H]1OC(=O)c2coc3c2[C@@]1(C)C1=C(C3=O)[C@@H]2CCC(=O)[C@@]2(C)C[C@H]1OC(C)=O [wortmannin]
Cdt-induced accumulation of G2 cells after pre-treatment (Jurkat cells [1]): 35%

PTEN: Tumor suppressor phosphatase (phosphatase and tensin homolog deleted on chromosome ten), used for comparison [reference compound]
substrate specificity (phosphate release with phosphatidylinositol phosphates) [2]: substrate specificity for PI-(3,4,5)-P3 identical to CdtB
Km [3]: 159 µM
EC50 [3, 8]: 50 nM
product formed from PI-3,4,5-P3 [4]: PI-(4,5)-P2

B1: CdtB: Active B subunit of cytolethal distending toxin, SEQ ID NO: 3, expressed from pGEMCdtB (protein)
chain: NLSDFKVATWNLQGSSAVNESKWNINVRQLLSGEQGADILMVQEAGSLPSSAVRTSRVIQHGGTPIEEYTWNLGTRSRPNMVYIYYSRLDVGANRVNLAIVSRRQADEAFIVHSDSSVLQSRPAVGIRIGTDVFFTVHALATGGSDAVSLIRNIFTTFTSSPSSPERRGYSWMVVGDFNRAPVNLEAALRQEPAVSENTIIIAPTEPTHRSGNILDYAILHDAHLPRREQARERIGASLMLNQLRSQITSDHFPVSFVRDR
modifications: Actinobacillus actinomycetemcomitans
DNase Activity (% CdtB^wt) (supercoiled pUC19 DNA): 100 % CdtB^wt
DNase activity (in words) (supercoiled pUC19 DNA; 2 hrs at 37° C.): detectable nuclease activity although it was less than five orders of magnitude of that observed with bovine DNase I
substrate specificity (phosphate release with phosphatidylinositol phosphates) [2]: only occurred in the presence of PI-3,4,5-P3
Km [3]: 124 µM
PIP3 phosphatase activity (% CdtB^wt) [3]: 100 % CdtB^wt
EC50 [3, 8]: 500 nM
EC50 ([3]; read-out: ED0.5): 300 nM
dephosphorylation of inositol triphosphate or inositol tetrakisphosphate [5]: unable to dephosphorylate
toxicity (G2 cell cycle arrest), dose response (Jurkat cells [6]): comparable activity
percentage of G2 cells (Jurkat cells [6]; 18 hrs): 54.8%
protein phosphatase activity [7]: did not exhibit detectable protein phosphatase activity
product formed from PI-3,4,5-P3 [4]: PI-(3,4)-P2

Source: patent US8110551B2 (priority 2008, dated 2012)
